What all share (experiment): NMR
In series [1] the target is Cys31 (UniProt position 31, FGTDWCGHCQA). As to conditions: 298 K; reduced (with DTT), 1 mM protein.
The target of series [2] is Cys34 (UniProt position 34, DWCGHCQAAQP). To be noted: 298 K; reduced (with DTT), 1 mM protein.
Series [3] addresses His33 (UniProt position 33, TDWCGHCQAAQ). To be noted: 298 K, 1 mM protein.

Data on 1 substance can be found in doi:10.1101/2025.07.28.667166.

The pKa is the pH at which an ionisable group is half protonated.

As to “Patrx2 (atypical thioredoxin, PA2694) (Pseudomonas aeruginosa)”, the pKa is recorded as 5.8 in series [1]; “greater than 11.0” in series [2]; “less than 5” in series [3] (oxidised (C31-C34 disulfide, without DTT)); 6.3 in series [3] (reduced (with DTT)).
